For one test, the target named is HLA-B*14:02. Briefly: IEDB peptide-MHC binding, purified MHC/competitive/fluorescence; ≥ and ≤ were set here for values at or beyond the usual limits of such assays. Particulars: source organism: Homo sapiens.
In test [1] the target is HLA-A*03:01. The test is described as above. The settings on record: source organism: Homo sapiens.
The target in another test is HLA-A*68:02. The test is described as above. The settings on record: source organism: Homo sapiens.
A further test deals with HLA-B*53:01. The test is described as above. The settings on record: source organism: Homo sapiens.
Test [2] concerns the target HLA-B*51:01. Described as above. The settings on record: source organism: Homo sapiens.
In test [3] the target is HLA-A*01:01. The test is described as above. The settings on record: source organism: Homo sapiens.
Test [4] concerns the target HLA-B*07:02. The test is described as above. Particulars: source organism: Homo sapiens.
Another test addresses HLA-B*44:03. The description is as above. Particulars: source organism: Homo sapiens.
The next test deals with HLA-A*24:02. Described as above. Particulars: source organism: Homo sapiens.
Test [5] deals with HLA-A*11:01. The description is as above. The settings on record: source organism: Homo sapiens.
In test [6] the target is HLA-B*58:01. The test is described as above. Particulars: source organism: Homo sapiens.
A further test addresses HLA-A*25:01. The test is described as above. Particulars: source organism: Homo sapiens.
Test [7] deals with HLA-A*02:01. The test is described as above. Particulars: source organism: Homo sapiens.
In test [8] the target is HLA-A*31:01. The description is as above. The settings on record: source organism: Homo sapiens.
The next test deals with HLA-A*29:02. The test is described as above. The settings on record: source organism: Homo sapiens.
The target of a further test is HLA-B*37:01. The description is as above. Particulars: source organism: Homo sapiens.
The next test addresses HLA-B*35:01. Described as above. The settings on record: source organism: Homo sapiens.
A further test concerns the target HLA-B*40:02. The description is as above. The settings on record: source organism: Homo sapiens.
In test [9] the target is HLA-B*18:01. The description is as above. The settings on record: source organism: Homo sapiens.
Another test has as its target HLA-B*08:01. Described as above. The settings on record: source organism: Homo sapiens.
Test [10] has as its target HLA-A*03:01. Briefly: IEDB peptide-MHC binding, purified MHC/direct/fluorescence; filed as Kd, often an IC50 or EC50 that approximates it; ≥ and ≤ were set here for values at or beyond the usual limits of such assays. Particulars: source organism: Giardia lamblia ATCC 50803.
For test [11], the target named is HLA-B*51:01. Described as above. Particulars: source organism: Giardia lamblia ATCC 50803.
For test [12], the target named is HLA-A*01:01. Described as above. Particulars: source organism: Giardia lamblia ATCC 50803.
For the next test, the target named is HLA-C*03:03. The description is as above. Particulars: source organism: Giardia lamblia ATCC 50803.
The target in test [13] is HLA-B*07:02. Described as above. Particulars: source organism: Giardia lamblia ATCC 50803.
A further test concerns the target HLA-B*46:01. The description is as above. Particulars: source organism: Giardia lamblia ATCC 50803.
The target in another test is HLA-B*27:05. The description is as above. The settings on record: source organism: Giardia lamblia ATCC 50803.
Test [14] addresses HLA-A*11:01. The description is as above. The settings on record: source organism: Giardia lamblia ATCC 50803.
The target of a further test is HLA-B*15:17. Described as above. The settings on record: source organism: Giardia lamblia ATCC 50803.
The target of test [15] is HLA-B*58:01. The test is described as above. The settings on record: source organism: Giardia lamblia ATCC 50803.
For a further test, the target named is HLA-B*57:01. Described as above. Particulars: source organism: Giardia lamblia ATCC 50803.
Test [16] deals with HLA-A*02:01. Described as above. The settings on record: source organism: Giardia lamblia ATCC 50803.
Test [17] addresses HLA-A*31:01. The test is described as above. The settings on record: source organism: Giardia lamblia ATCC 50803.
The target in a further test is HLA-B*40:01. The description is as above. The settings on record: source organism: Giardia lamblia ATCC 50803.
The target of the next test is HLA-A*30:01. The test is described as above. Particulars: source organism: Giardia lamblia ATCC 50803.
In the next test the target is HLA-A*69:01. The test is described as above. The settings on record: source organism: Giardia lamblia ATCC 50803.
The target of the next test is HLA-B*15:01. The test is described as above. Particulars: source organism: Giardia lamblia ATCC 50803.
In test [18] the target is HLA-B*18:01. The test is described as above. Particulars: source organism: Giardia lamblia ATCC 50803.
For test [19], the target named is HLA-B*48:01. The test is described as above. The settings on record: source organism: Giardia lamblia ATCC 50803.
The next test concerns the target HLA-B*15:09. Briefly: IEDB peptide-MHC binding, purified MHC/competitive/fluorescence; filed as Kd, often an IC50 or EC50 that approximates it; ≥ and ≤ were set here for values at or beyond the usual limits of such assays. Particulars: source organism: Giardia lamblia ATCC 50803.
The target of test [20] is HLA-B*48:01. Described as above. The settings on record: source organism: Toxoplasma gondii RH.

For the sequence ELFARSSDPR, the IC50 in the test with HLA-B*14:02 was not below 20 µM; in the test with HLA-A*03:01 [1] it was not below 20 µM; with HLA-A*68:02, 5.66 µM; with HLA-B*53:01 it was not below 20 µM; in the test with HLA-B*51:01 [2], not below 20 µM; with HLA-A*01:01 [3] it was not below 20 µM. For the same sequence, the IC50 with HLA-B*07:02 [4], with HLA-B*44:03, in the test with HLA-A*24:02, in the test with HLA-A*11:01 [5], in the test with HLA-B*58:01 [6] and in the test with HLA-A*25:01 was not below 20 µM in each case. In addition, the IC50 with HLA-A*02:01 [7] is not below 20 µM; with HLA-A*31:01 [8], 15.5 µM; with HLA-A*29:02 it was not below 20 µM; in the test with HLA-B*37:01 it was not below 20 µM; with HLA-B*35:01, not below 20 µM; in the test with HLA-B*40:02, not below 20 µM. Further, the concentration for half-maximal inhibition (IC50) with HLA-B*18:01 [9] and with HLA-B*08:01 was not below 20 µM throughout.

Take LVTMGTGTFGR: the IC50 with HLA-B*14:02, with HLA-A*03:01 [1], in the test with HLA-A*68:02, with HLA-B*53:01, in the test with HLA-B*51:01 [2] and with HLA-A*01:01 [3] was not below 20 µM throughout. For the same sequence, the IC50 with HLA-B*07:02 [4] was 13.7 µM; with HLA-B*44:03 it was not below 20 µM; in the test with HLA-A*24:02, not below 20 µM; with HLA-A*11:01 [5], 0.386 µM; in the test with HLA-B*58:01 [6], not below 20 µM; in the test with HLA-A*25:01, not below 20 µM. The 50% inhibitory concentration (IC50) with HLA-A*02:01 [7] was not below 20 µM; with HLA-A*31:01 [8] it was not below 20 µM; with HLA-A*29:02, not below 20 µM; with HLA-B*37:01 it was not below 20 µM; with HLA-B*35:01, 0.975 µM; with HLA-B*40:02, not below 20 µM. In addition, the IC50 in the test with HLA-B*18:01 [9] and in the test with HLA-B*08:01 was not below 20 µM in each case.

Regarding RQSSGSSSSGF, the IC50 with HLA-B*14:02, with HLA-A*03:01 [1], in the test with HLA-A*68:02, with HLA-B*53:01, with HLA-B*51:01 [2] and in the test with HLA-A*01:01 [3] was not below 20 µM in each case. Also, the IC50 with HLA-B*07:02 [4], in the test with HLA-B*44:03, in the test with HLA-A*24:02, with HLA-A*11:01 [5], with HLA-B*58:01 [6] and with HLA-A*25:01 was not below 20 µM throughout. The IC50 in the test with HLA-A*02:01 [7] was not below 20 µM; with HLA-A*31:01 [8], not below 20 µM; with HLA-A*29:02 it was not below 20 µM; with HLA-B*37:01 it was 0.317 µM; in the test with HLA-B*35:01 it was not below 20 µM; with HLA-B*40:02, 2.06 µM. Moreover, the IC50 with HLA-B*18:01 [9] and in the test with HLA-B*08:01 was not below 20 µM each time.

For the sequence VAAKGAPAL, the Kd was not below 20 µM with HLA-A*03:01 [10]; not below 20 µM with HLA-B*51:01 [11]; not below 20 µM with HLA-A*01:01 [12]; 0.003 µM in the test with HLA-C*03:03; 0.279 µM with HLA-B*07:02 [13]; not below 20 µM with HLA-B*46:01. For the same sequence, the Kd is not below 20 µM with HLA-B*27:05; not below 20 µM in the test with HLA-A*11:01 [14]; 0.0071 µM in the test with HLA-B*15:17; 0.952 µM with HLA-B*58:01 [15]; not below 20 µM with HLA-B*57:01; not below 20 µM in the test with HLA-A*02:01 [16]. Moreover, the Kd with HLA-A*31:01 [17] is not below 20 µM; in the test with HLA-B*40:01, not below 20 µM; in the test with HLA-A*30:01, not below 20 µM; in the test with HLA-A*69:01 it was 0.0677 µM; in the test with HLA-B*15:01, not below 20 µM; with HLA-B*18:01 [18], not below 20 µM. Also, the Kd is 5.66 µM with HLA-B*48:01 [19] and not below 20 µM with HLA-B*15:09.

Take WQLSGVVPL: in the test with HLA-B*48:01 [20], the Kd turned out to be 0.0299 µM. In other words, the double-digit nanomolar range.

As a reminder, the IC50 is the concentration that inhibits the measured activity by half. Read a low IC50 as inhibition by little substance. In general, Kd refers to the equilibrium constant for the complex coming apart.

The values above are taken from the Immune Epitope Database (IEDB).
